Target: Flag-tagged full length Ack1 (human) (UniProt Q07912)
Experiment: co-IP; Cos7 cells transfected with FLAG-Ack1 alone or with HA-NKD or HA-KD; RIPA lysates (450-750 ug) incubated overnight at 4°C with FLAG M2 affinity gel, washed 5 times with RIPA buffer; blots with anti-HA and anti-FLAG; densitometry ratio HA-Ack1/Flag-Ack1

HA-tagged Ack1 NKD (amino terminus plus kinase domain) (from UniProt Q07912 1-385) (domain or fragment)
fold co-immunoprecipitation against HA-KD: 3 fold

— article PMC2987765
